Data set [1] concerns the target nylon hydrolase NylCK (wild type, Kocuria), active enzyme: alpha-beta heterodimer (Kocuria). Put plainly: AUC; sedimentation velocity (40,000 rpm) and sedimentation equilibrium (14,000 rpm); each NylC enzyme 0.34 mg ml^-1 in phosphate buffer, 20 °C; self-association of the monomer units.
Data set [2] deals with the molecule itself. The data set is described as above.
Data set [3] deals with the molecule itself. Put plainly: crystal structure; sitting-drop vapor diffusion, ammonium sulfate, 0.1 M HEPES pH 7.5, 0.2 M NaCl, 25% glycerol; space group C222_(1), two molecules (A/B dimer) in the asymmetric unit, tetramer by the crystallographic two-fold axis.

Numbering of substitutions follows the chain as printed. Numbers in names are those of the source. Where “and” joins values, the source holds several entries; their conditions need not be identical. Identical values can stand only once.

By stoichiometry N is commonly meant a count of units in the complex or per binding partner. Regarding “nylon hydrolase NylCK (wild type, Kocuria), active enzyme: alpha-beta heterodimer (from UniProt Q79F77 1-266; Q79F77 267-355)”, the stoichiometry N in data set [1] is 4.

B1: NylCp2-A^137 mutant (L137A), uncleaved precursor (enzyme, Arthrobacter, UniProt Q79F77 1-355, looked up)
chain: MNTTPVHALTDIDGGIAVDPAPRLAGPPVFGGPGNDAFDLAPVRSTGREMLRFDFPGVSIGAAHYEEGPTGATVIHIPAGARTAVDARGGAVGLSGGYDFNHAICLAGGAGYGLEAGAGVSDALLERLEHRTGFAEAQLVSSAVIYDFSARSTAVYPDKALGRAALEFAVPGEFPQGRAGAGMSASAGKVDWDRTEITGQGAAFRRLGDVRILAVVVPNPVGVIVDRAGTVVRGNYDAQTGVRRHPVFDYQEAFAEQVPPVTEAGNTTISAIVTNVRMSPVELNQFAKQVHSSMHRGIQPFHTDMDGDTLFAVTTDEIDLPTTPGSSRGRLSVNATALGAIASEVMWDAVLEAGK
notes: NylCp2 with L137A, obtained as the uncleaved precursor (36 kDa; 355 residues); source: E. coli JM109, purified (ammonium sulfate fractionation, anion-exchange, gel filtration)
On to B1, for which the “stoichiometry N” value in data set [2] is 2.

B2: NylCp2-G^122A^137 mutant (D122G/L137A), mixture of precursor and alpha and beta subunits (enzyme, Arthrobacter, UniProt Q79F77 1-355, looked up)
chain: B1 chain with D122G
notes: NylCp2 with D122G and L137A; obtained as a mixture of the uncleaved precursor and the alpha (to N266) and beta (from T267) subunits; Written as the one-chain precursor; part of the sample was cleaved at Asn266/Thr267; source: E. coli JM109, purified (ammonium sulfate fractionation, anion-exchange, gel filtration)
Consider B2, for which the “stoichiometry N” value in data set [2] amounted to 3.

B3: nylon hydrolase NylCp2 (wild type, Arthrobacter plasmid pOAD2-encoded NylC), active enzyme: alpha-beta heterodimer (enzyme)
chain 1: MNTTPVHALTDIDGGIAVDPAPRLAGPPVFGGPGNDAFDLAPVRSTGREMLRFDFPGVSIGAAHYEEGPTGATVIHIPAGARTAVDARGGAVGLSGGYDFNHAICLAGGAGYGLEAGAGVSDALLERLEHRTGFAELQLVSSAVIYDFSARSTAVYPDKALGRAALEFAVPGEFPQGRAGAGMSASAGKVDWDRTEITGQGAAFRRLGDVRILAVVVPNPVGVIVDRAGTVVRGNYDAQTGVRRHPVFDYQEAFAEQVPPVTEAGN
chain 2: TTISAIVTNVRMSPVELNQFAKQVHSSMHRGIQPFHTDMDGDTLFAVTTDEIDLPTTPGSSRGRLSVNATALGAIASEVMWDAVLEAGK
notes: NylCp2, alpha subunit (27 kDa) made by autocleavage of the 355-residue precursor between Asn266 and Thr267; NylCp2, beta subunit (9 kDa) made by autocleavage of the 355-residue precursor between Asn266 and Thr267; also called wild-type NylCp2; monomer molecule A-D; source: E. coli JM109, purified (ammonium sulfate fractionation, anion-exchange, gel filtration)
For B3, the “stoichiometry N” value in data set [2] is 3 and 2; in data set [3], 4.

B4: NylCp2-Y^130 mutant enzyme (H130Y), alpha-beta heterodimer (enzyme, Arthrobacter)
chain 1: B3 chain 1 with H130Y
chain 2: B3 chain 2
notes: NylCp2 alpha subunit with H130Y; NylCp2 beta subunit; source: E. coli JM109, purified (ammonium sulfate fractionation, anion-exchange, gel filtration)
As to B4, the “stoichiometry N” value in data set [3] was 4.

B5: NylCp2-V^122 mutant enzyme (D122V), alpha-beta heterodimer (enzyme, Arthrobacter)
chain 1: B3 chain 1 with D122V
chain 2: B3 chain 2
notes: NylCp2 alpha subunit with D122V; NylCp2 beta subunit; source: E. coli JM109, purified (ammonium sulfate fractionation, anion-exchange, gel filtration)
As to B5, in data set [3], the “stoichiometry N” value was found to be 4.

B6: NylCp2-G^122Y^130A^36Q^263 mutant enzyme (D122G/H130Y/D36A/E263Q), alpha-beta heterodimer (enzyme, Arthrobacter)
chain 1: B3 chain 1 with D36A, D122G, H130Y, E263Q
chain 2: B3 chain 2
notes: NylCp2 alpha subunit with four substitutions; NylCp2 beta subunit; also called NylC-G^122Y^130A^36Q^263; source: E. coli JM109, purified (ammonium sulfate fractionation, anion-exchange, gel filtration)
For B6, the “stoichiometry N” value in data set [2] was found to be 4.

B7: nylon hydrolase NylCA (wild type, Agromyces), active enzyme: alpha-beta heterodimer (enzyme)
chain 1: B3 chain 1 with G111S, D122G, H130Y, L137A, V225M
chain 2: B3 chain 2
notes: NylCA of Agromyces, alpha subunit; NylCA of Agromyces, beta subunit; source: E. coli clone (plasmid pSKRC4), purified to homogeneity as previously reported
Consider B7, for which the “stoichiometry N” value in data set [2] was 4.

B8: NylCp2-G^122Y^130 mutant enzyme (D122G/H130Y), alpha-beta heterodimer (enzyme, Arthrobacter)
chain 1: B3 chain 1 with D122G, H130Y
chain 2: B3 chain 2
notes: NylCp2 alpha subunit with D122G and H130Y; NylCp2 beta subunit; also called NylC-G^122Y^130; source: E. coli JM109, purified (ammonium sulfate fractionation, anion-exchange, gel filtration)
Turning to B8, the “stoichiometry N” value in data set [3] came to 4.

B9: NylCp2-R^122 mutant enzyme (D122R), alpha-beta heterodimer (enzyme, Arthrobacter)
chain 1: B3 chain 1 with D122R
chain 2: B3 chain 2
notes: NylCp2 alpha subunit with D122R; NylCp2 beta subunit; source: E. coli JM109, purified (ammonium sulfate fractionation, anion-exchange, gel filtration)
On to B9, for which the “stoichiometry N” value in data set [3] was 4.

B10: NylCp2-G^122 mutant enzyme (D122G), alpha-beta heterodimer (enzyme, Arthrobacter)
chain 1: B3 chain 1 with D122G
chain 2: B3 chain 2
notes: NylCp2 alpha subunit with D122G; NylCp2 beta subunit; also called Gly122 enzyme; source: E. coli JM109, purified (ammonium sulfate fractionation, anion-exchange, gel filtration)
As to B10, in data set [3], the “stoichiometry N” value was 4.

B11: NylCp2-K^122 mutant enzyme (D122K), alpha-beta heterodimer (enzyme, Arthrobacter)
chain 1: B3 chain 1 with D122K
chain 2: B3 chain 2
notes: NylCp2 alpha subunit with D122K; NylCp2 beta subunit; source: E. coli JM109, purified (ammonium sulfate fractionation, anion-exchange, gel filtration)
Turning to B11, the “stoichiometry N” value in data set [3] came to 4.

Values taken from paper PMC6021441, “Structural basis of the correct subunit assembly, aggregation, and intracellular degradation of nylon hydrolase” (Scientific Reports, 2018).
